This note sets out measurements from patent US20190016816A1.

In the experiment the target is FcγRIIa (CD32a His131) (UniProt P12318). Description: flow cytometry, CHO cells stably expressing CD32a His131, fluorescent anti-human IgG secondary, MFI (mean). (Flow cytometry measures light scatter and fluorescence of single cells or particles in a stream.)
FcγRIIa (CD32a His131), sequence (P12318 34-317 limits assumed): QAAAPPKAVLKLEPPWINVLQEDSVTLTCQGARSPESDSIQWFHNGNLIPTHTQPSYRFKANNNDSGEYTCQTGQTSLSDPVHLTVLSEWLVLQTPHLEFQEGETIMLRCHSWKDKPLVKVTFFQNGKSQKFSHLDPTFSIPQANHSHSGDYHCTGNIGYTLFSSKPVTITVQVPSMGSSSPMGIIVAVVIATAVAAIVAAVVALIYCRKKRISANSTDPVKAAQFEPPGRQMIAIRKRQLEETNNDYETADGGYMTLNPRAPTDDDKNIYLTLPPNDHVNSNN

On to control human IgG1 molecule (antibody), for which the EC50 (read off the curve) (commonly the midpoint of the concentration-response curve) worked out at 9 nM. In other words, the single-digit nanomolar range.
